# Results from paper PMC4098917, “Assembly of the Type Two Secretion System in Aeromonas hydrophila Involves Direct Interaction between the Periplasmic Domains of the Assembly Factor ExeB and the Secretin ExeD” (PLoS ONE, 2014).
# T1: N-His-tagged periplasmic domain of ExeD, purified (A. hydrophila, UniProt P31780 26-355)
# T1 construct: periplasmic domain of ExeD, A. hydrophila, in NdeI/XhoI of pET30a; the printed primers carry no His codons and no stop codon, so the tag may be the vector's C-terminal one (my surmise); also called P-ExeD; N-His-tagged-P-ExeD; source: E. coli BL21, purified (Ni-NTA, Resource S ion exchange)
# T1 sequence: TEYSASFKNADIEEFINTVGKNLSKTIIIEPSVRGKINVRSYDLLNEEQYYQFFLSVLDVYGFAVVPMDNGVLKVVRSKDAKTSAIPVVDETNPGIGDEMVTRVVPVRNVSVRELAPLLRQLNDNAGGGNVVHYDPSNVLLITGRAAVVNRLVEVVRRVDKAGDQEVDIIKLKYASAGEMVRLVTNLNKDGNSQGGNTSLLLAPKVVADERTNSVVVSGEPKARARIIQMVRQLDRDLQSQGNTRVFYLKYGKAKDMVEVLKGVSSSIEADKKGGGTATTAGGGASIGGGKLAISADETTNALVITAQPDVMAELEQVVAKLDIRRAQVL
# T2: periplasmic domain of ExeB (bacterial two-hybrid fusion) (A. hydrophila, UniProt P45755 58-226)
# T2 construct: periplasmic domain of ExeB, A. hydrophila, amplified from pGAD424-P-ExeB; Stood in pBT and in pTRG; also called P-ExeB; source: bacterial two-hybrid fusion (E. coli BM2H)
# T2 sequence: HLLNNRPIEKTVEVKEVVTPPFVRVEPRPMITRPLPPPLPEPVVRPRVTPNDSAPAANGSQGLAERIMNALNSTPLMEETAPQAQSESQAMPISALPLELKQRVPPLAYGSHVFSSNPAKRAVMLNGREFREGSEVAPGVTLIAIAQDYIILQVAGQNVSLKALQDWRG
# B1: fluorescein-EX labeled N-His-tagged periplasmic domain of ExeB (domain or fragment)
# chain: T2 sequence
# modifications: fluorescein (Fluorescein-EX Protein Labeling kit), ~0.8 moles of dye per mole of protein
# notes: periplasmic domain of ExeB, A. hydrophila, in pET30a; Same construct as m27, purified and labelled; also called F-labeled P-ExeB; fluorescein-EX labeled P-ExeB; source: E. coli BL21, purified (Ni-NTA, Resource S ion exchange)
# B2: periplasmic domain of ExeD (bacterial two-hybrid fusion) (domain or fragment)
# chain: T1 sequence
# notes: periplasmic domain of ExeD, A. hydrophila, amplified from pGAD424-P-ExeD; Stood in pTRG and in pBT; also called P-ExeD; full-length P-ExeD; source: bacterial two-hybrid fusion (E. coli BM2H)
# Columns and labels:
# [1] = target: dimerization domain (40 aa) of the Gal4 transcriptional activator protein (pBT-LGF2); experiment: two-hybrid; bacterial two-hybrid (BacterioMatch, E. coli BM2H; bait pBT, target pTRG); minimum inhibitory concentration of carbenicillin (0-12.8 mg/mL), 0.1 mM IPTG, overnight at 30°C
# [2] = target: T1, N-His-tagged periplasmic domain of …; experiment: fluorescence polarisation; steady state rotational anisotropy; F-labeled P-ExeB 50 nM, titration of P-ExeD 0-4000 nM, RT buffer, 21°C; apparent Kd from a rectangular hyperbola; conditions: both partners purified
# [3] = target: T2, periplasmic domain of ExeB (bacterial …); experiment: two-hybrid; bacterial two-hybrid (BacterioMatch, E. coli BM2H; bait pBT, target pTRG); β-galactosidase activity of permeabilized cells, 0.02 mM IPTG; conditions: partners not purified
molecule,measurement,setting,value
domain (90aa) of the mutant form of the Gal11 protein (pTRG-Gal11P) (domain or fragment),MIC of carbenicillin,[1],12.8 mg/mL
B1,Kd,[2],1.19 ± 0.16 µM
B2,fold β-galactosidase activity over cells with the empty vectors,[3],> 11 fold
